Consider 7 molecules from US20240158497A1 (published 2024).

The chains are these.
B1: bsAb19145D (bispecific antibody, V domains shown)
VH 1: QVQLVESGGGVVQPGRSLRLSCTASGFTFSSYAMYWVRQAPGKGLEWVSVIYYDGSYKYYADSVKGRFTISRDNSKNTLYLQMDSLRAEDTAVYYCASYNWNYWYFDFWGRGTLVTVSS
VH 2: EVQLVESGGGLVQPGRSLRLSCAASGFTLDDFAMHWVRQAPGKGLEWVSGISWNSGNIGYADSVKGRFTISRDNARNSLYLQMNSLRAEDTALYYCTSGYYLYYAMDVWGQGTTVTVSS
VL: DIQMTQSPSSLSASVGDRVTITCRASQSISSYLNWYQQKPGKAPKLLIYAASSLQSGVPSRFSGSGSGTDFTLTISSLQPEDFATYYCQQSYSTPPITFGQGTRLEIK
notes: LEPR x GP130 bispecific with common light chain
B2: bsAb19152D (bispecific antibody, V domains shown)
VH 1: B1 VH 1
VH 2: EVQLVQSGAEVKKPGESLKISCKGSGYSFTSYWIDWVRQMPGKGLEWMGIIYPDDSDTRYSPSFQGQVTMSVDKSISTAYLQWSSLKASDTAIYYCARHERGIVEAGTDYYYYYGMDVWGQGTTVTVSS
VL: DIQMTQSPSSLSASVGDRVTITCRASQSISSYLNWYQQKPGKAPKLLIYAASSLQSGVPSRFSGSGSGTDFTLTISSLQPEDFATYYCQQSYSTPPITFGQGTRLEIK
notes: as for B1
B3: bsAb19153D (bispecific antibody, V domains shown)
VH 1: B1 VH 1
VH 2: QVQLVQSGAEVMKPGASVKVSCRASGYTFSSYDINWVRQAPGQGLEWMGWISTATGNTNYPQKVQGRVTMTTDTSTNTAYMELRSLRSDDTAVYYCTREGNSKGWLDPWGQGTLVTVSS
VL: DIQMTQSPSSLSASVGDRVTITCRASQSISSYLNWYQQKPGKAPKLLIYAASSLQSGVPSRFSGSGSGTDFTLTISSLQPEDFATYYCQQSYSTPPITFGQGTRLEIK
notes: as for B1
B4: bsAb19151D (bispecific antibody, V domains shown)
VH 1: B1 VH 1
VH 2: EVQLVESGGGLVQPGGSLRLSCAASGFTFSSYAMNWVRQAPGKGLEWVSAISGSGDSTYYTDSVKGRFTISRDNSKNTLYLQMNTLRAEDTAVYYCAKEEIVMLVGATPGWFDPWGQGTLVTVSS
VL: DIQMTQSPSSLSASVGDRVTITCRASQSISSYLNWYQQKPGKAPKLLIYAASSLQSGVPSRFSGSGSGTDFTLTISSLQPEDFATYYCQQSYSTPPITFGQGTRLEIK
notes: as for B1
B5: bsAb19155D (bispecific antibody, V domains shown)
VH 1: B1 VH 1
VH 2: EVQLVESGGGLVQPGGSLRLSCAASGFTFSTYWMNWVRQAPGKGLEWVANIKEDGSEKYYVDSVKGRFTISRDNAKNSLYLQMNSLRAEDTAVYYCAREGFGVVTYIWGQGTMVTVSS
VL: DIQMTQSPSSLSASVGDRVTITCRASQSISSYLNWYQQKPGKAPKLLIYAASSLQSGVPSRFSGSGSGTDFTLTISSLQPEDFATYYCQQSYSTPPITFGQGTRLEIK
notes: as for B1
B6: bsAb19146D (bispecific antibody, V domains shown)
VH 1: B1 VH 1
VH 2: QVQLVQSGPEVKKPGSSVKVSCKASGGTIDRNEITWVRQAPGQGLEWMGVIIPILGEAHYERKFQGRLTITMDESTSTAYMELSNLRSEDTAVYYCARERAARGYLDYWGQGTLVTVSS
VL: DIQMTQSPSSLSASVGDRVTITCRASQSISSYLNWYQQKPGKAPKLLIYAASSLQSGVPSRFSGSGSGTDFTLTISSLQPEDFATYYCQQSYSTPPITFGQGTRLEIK
notes: as for B1
B7: bsAb19150D (bispecific antibody, V domains shown)
VH 1: B1 VH 1
VH 2: EVQLVESGGGLVQSGGSLRLSCAASGFTFSRYEMNWVRQAPGKGLEWVAYISNTGTTRDYSDSVKGRFTISRDNAKNSLYLQMSSLRVEDTAVYYCVREKFSGTSDWFDPWGQGTLVTVSS
VL: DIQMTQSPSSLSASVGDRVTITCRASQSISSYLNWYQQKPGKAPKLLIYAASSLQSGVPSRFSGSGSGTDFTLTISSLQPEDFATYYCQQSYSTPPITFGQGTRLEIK
notes: as for B1

One assay has as its target T1, Macaca Fascicularis GP130 extracellular domain expressed with a C-terminal myc-myc-hexahistidine tag (Macaca fascicularis, UniProt P40189 23-619 (human entry)).
T1 construct: also called mfGP130-MMH; mfGP130-mmH
T1 chain: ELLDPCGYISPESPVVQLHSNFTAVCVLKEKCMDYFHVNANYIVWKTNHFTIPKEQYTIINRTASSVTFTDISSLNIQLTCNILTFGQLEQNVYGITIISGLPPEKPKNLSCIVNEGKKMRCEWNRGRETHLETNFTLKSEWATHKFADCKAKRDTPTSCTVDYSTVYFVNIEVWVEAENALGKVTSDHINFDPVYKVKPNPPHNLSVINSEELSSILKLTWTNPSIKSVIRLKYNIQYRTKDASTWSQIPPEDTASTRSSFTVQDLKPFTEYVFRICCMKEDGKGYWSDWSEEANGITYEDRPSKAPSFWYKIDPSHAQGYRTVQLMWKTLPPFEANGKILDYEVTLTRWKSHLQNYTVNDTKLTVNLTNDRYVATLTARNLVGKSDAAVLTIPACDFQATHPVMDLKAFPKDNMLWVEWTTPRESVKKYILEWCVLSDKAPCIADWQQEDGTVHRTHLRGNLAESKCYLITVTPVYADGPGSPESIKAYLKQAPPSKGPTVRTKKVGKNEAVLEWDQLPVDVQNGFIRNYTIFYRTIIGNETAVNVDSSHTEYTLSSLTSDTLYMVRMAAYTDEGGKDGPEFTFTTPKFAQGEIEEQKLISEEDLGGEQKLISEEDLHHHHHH
Kind of assay: SPR, bsAb captured by anti-hFc, 25C. The method, then:
(§1) Equilibrium dissociation constants (KD values) for LEPR and GP130 binding to purified anti-LEPR/GP130 bispecific antibodies were determined using a real-time surface plasmon resonance biosensor using a Biacore 4000 instrument. All binding studies were performed in 10 mM HEPES, 150 mM NaCl, 3 mM EDTA, and 0.05% v/v Surfactant Tween-20, pH 7.4 (HBS-ET) running buffer at 25° C. and 37° C. The Biacore sensor surface was first derivatized by amine coupling with a monoclonal mouse anti-human Fc antibody (GE, #BR-1008-39) to capture anti-LEPR/GP130 bispecific antibodies. […] Different concentrations of LEPR or GP130 reagents were first prepared in HBS-ET running buffer (100 nM-3.7 nM; 3-fold serial dilution) and were injected over anti-human Fc captured anti-LEPR/GP130 bispecific antibody surface for 4 minutes at a flow rate of 30 μL/minute, while the dissociation of bispecific antibody bound LEPR or GP130 reagent was monitored for 10 minutes in HBS-ET running buffer. Kinetic association (kₐ) and dissociation (kd) rate constants were determined by fitting the real-time binding sensorgrams to a 1:1 binding model with mass transport limitation using Scrubber 2.0c curve-fitting software. Binding dissociation equilibrium constants (KD) and dissociative half-lives (t ½) were calculated from the kinetic rate constants as: […]
A general note: In SPR one partner is held on a chip, and binding of the other changes the refractive index at the surface.
B1: the “100 nM mfGP130-MMH Bound (RU)” value came to 18 RU; the Kd (in general, a measure of binding affinity in units of concentration) was determined as 17.4 nM; the off-rate constant (koff) – broadly, the first-order rate constant of dissociation – was 0.000576 s⁻¹; the on-rate (kon) (commonly the second-order rate constant of association) worked out at 33100 M⁻¹ s⁻¹. Besides, the t½ (commonly the time needed for the level to fall by half in the phase considered) was 20 min.

In the case of B2, the “100 nM mfGP130-MMH Bound (RU)” value came to 52 RU, binding was put at a Kd of 18.8 nM, the koff is 0.00553 s⁻¹ and the on-rate (kon) worked out at 295000 M⁻¹ s⁻¹. The molecule also gave a t½ of 2.1 min.

Consider B3, for which the “100 nM mfGP130-MMH Bound (RU)” value amounted to 23 RU, binding was put at a Kd of 1.73 nM, the off-rate (koff) amounted to 0.000396 s⁻¹ and the kon is 229000 M⁻¹ s⁻¹. This molecule came in with a t½ of 29 min.

As for B4, the “100 nM mfGP130-MMH Bound (RU)” value came to 3 RU and the binding result is listed as “no binding (tested: 100 nM)”.

For the molecule B5, the “100 nM mfGP130-MMH Bound (RU)” value amounted to 7 RU, the Kd is 186 nM, the off-rate (koff) is 0.0184 s⁻¹ and the kon was 98500 M⁻¹ s⁻¹. This molecule also returned a t½ of 0.6 min.

For the molecule B6, the “100 nM mfGP130-MMH Bound (RU)” value stood at 31 RU, the Kd came out at 0.513 nM, the dissociation rate constant (koff) amounted to 0.000258 s⁻¹ and the on-rate constant (kon) turned out to be 502000 M⁻¹ s⁻¹. Also, the t½ is 45 min.

For the molecule B7, the “100 nM mfGP130-MMH Bound (RU)” value amounted to 44 RU; the affinity, expressed as Kd, was 16.8 nM; the koff stood at 0.00519 s⁻¹; the kon is 308000 M⁻¹ s⁻¹. For the same molecule, the t½ amounted to 2.2 min.

Another assay deals with T2, human GP130 extracellular domain expressed with a C-terminal myc-myc-hexahistidine tag (human, UniProt P40189 23-619).
T2 construct: also called hGP130-MMH; hGP130-mmH
Kind of assay: SPR, bsAb captured by anti-hFc, 25C. As for the experimental part:
as §1
With B1, the “100 nM hGP130-MMH Bound (RU)” value worked out at 19 RU, the Kd stood at 17.5 nM, the koff was 0.000598 s⁻¹ and the kon was 34100 M⁻¹ s⁻¹. The same molecule registered a t½ of 19 min.

For B2, the “100 nM hGP130-MMH Bound (RU)” value was determined as 35 RU, the Kd worked out at 57.4 nM, the koff came to 0.0113 s⁻¹ and the kon was found to be 196000 M⁻¹ s⁻¹. This molecule yielded a t½ of 1 min.

Turning to B3, the “100 nM hGP130-MMH Bound (RU)” value was 24 RU, binding was put at a Kd of 1.62 nM, the off-rate constant (koff) stood at 0.000419 s⁻¹ and the kon is 258000 M⁻¹ s⁻¹. The same molecule gave a t½ of 28 min.

On to B4, for which the “100 nM hGP130-MMH Bound (RU)” value was determined as 9 RU, binding was characterised by a dissociation constant (Kd) of 10.5 nM, the koff was found to be 0.000221 s⁻¹ and the kon came to 21100 M⁻¹ s⁻¹. The t½ is 52 min.

Regarding B5, the “100 nM hGP130-MMH Bound (RU)” value came to 7 RU.

For the molecule B6, the “100 nM hGP130-MMH Bound (RU)” value is 31 RU, the Kd turned out to be 0.448 nM, the dissociation rate constant (koff) was found to be 0.000273 s⁻¹ and the kon amounted to 609000 M⁻¹ s⁻¹. The t½ is 42 min.

As for B7, the “100 nM hGP130-MMH Bound (RU)” value was found to be 47 RU; the affinity, expressed as Kd, was 14 nM; the koff was determined as 0.0048 s⁻¹; the kon came out at 342000 M⁻¹ s⁻¹. This molecule also came in with a t½ of 2.4 min.

For a further assay, the target named is T1, Macaca Fascicularis GP130 extracellular …. Kind of assay: SPR, bsAb captured by anti-hFc, 37C. As for the experimental part:
as §1
With B1, the “100 nM mfGP130-MMH Bound (RU)” value worked out at 29 RU, the Kd was 37.6 nM, the koff was determined as 0.00221 s⁻¹ and the kon was 58800 M⁻¹ s⁻¹. This molecule had a t½ of 5 min.

Turning to B2, the “100 nM mfGP130-MMH Bound (RU)” value stood at 51 RU, the Kd came out at 51.6 nM, the off-rate (koff) was 0.0177 s⁻¹ and the kon is 342000 M⁻¹ s⁻¹. Moreover, the t½ came to 0.7 min.

For B3, the “100 nM mfGP130-MMH Bound (RU)” value was 32 RU, binding was characterised by a dissociation constant (Kd) of 4.33 nM, the koff is 0.00123 s⁻¹ and the kon is 284000 M⁻¹ s⁻¹. For the same molecule, the t½ stood at 9 min.

With B4, the “100 nM mfGP130-MMH Bound (RU)” value is 6 RU.

Turning to B5, the “100 nM mfGP130-MMH Bound (RU)” value is 3 RU.

For the molecule B6, the “100 nM mfGP130-MMH Bound (RU)” value came to 53 RU, binding was put at a Kd of 0.959 nM, the koff amounted to 0.000626 s⁻¹ and the kon was 653000 M⁻¹ s⁻¹. The molecule further displayed a t½ of 18 min.

Turning to B7, the “100 nM mfGP130-MMH Bound (RU)” value stood at 46 RU, the Kd worked out at 19.3 nM, the koff was 0.00773 s⁻¹ and the kon came out at 401000 M⁻¹ s⁻¹. Further, the t½ amounted to 1.5 min.

The next assay concerns the target T2, human GP130 extracellular domain …. Kind of assay: SPR, bsAb captured by anti-hFc, 37C. As for the experimental part:
as §1
Consider B1, for which the “100 nM hGP130-MMH Bound (RU)” value came to 30 RU, the dissociation constant (Kd) worked out at 32 nM, the koff came out at 0.00222 s⁻¹ and the kon was found to be 69200 M⁻¹ s⁻¹. The t½ came out at 5 min.

Regarding B2, the “100 nM hGP130-MMH Bound (RU)” value was found to be 28 RU, the Kd was found to be 89.1 nM, the off-rate constant (koff) was 0.0363 s⁻¹ and the on-rate constant (kon) is 407000 M⁻¹ s⁻¹. For the same molecule, the t½ came out at 0.3 min.

For the molecule B3, the “100 nM hGP130-MMH Bound (RU)” value amounted to 33 RU, the Kd is 3.95 nM, the dissociation rate constant (koff) came out at 0.00126 s⁻¹ and the kon came out at 319000 M⁻¹ s⁻¹. Also, the t½ came out at 9 min.

Regarding B4, the “100 nM hGP130-MMH Bound (RU)” value was 16 RU, binding was characterised by a dissociation constant (Kd) of 16.6 nM, the koff was 0.000373 s⁻¹ and the kon was 22400 M⁻¹ s⁻¹. The t½ was determined as 31 min.

For the molecule B5, the “100 nM hGP130-MMH Bound (RU)” value is 4 RU and the binding result is recorded as “no binding (tested: 100 nM)”.

Turning to B6, the “100 nM hGP130-MMH Bound (RU)” value was determined as 53 RU, the Kd amounted to 0.901 nM, the koff was 0.000641 s⁻¹ and the kon was 712000 M⁻¹ s⁻¹. The t½ was 18 min.

Regarding B7, the “100 nM hGP130-MMH Bound (RU)” value was 52 RU, binding was characterised by a dissociation constant (Kd) of 15.4 nM, the off-rate constant (koff) worked out at 0.00665 s⁻¹ and the kon came out at 433000 M⁻¹ s⁻¹. The same molecule registered a t½ of 1.7 min.
